Legend:
[1] = molecular target: annexin A2 (ANXA2), endogenous, in conditioned medium of SCp2 cells (mouse) (UniProt P07356); assay: anti-Flag IP from conditioned medium, LC-MS/MS spectra counts; selection criterion that ANXA2 passed
[2] = molecular target: myristoylated alanine-rich C-kinase substrate (MARCKS), endogenous, in conditioned medium of SCp2 cells (mouse) (UniProt P26645); assay: anti-Flag IP from conditioned medium, LC-MS/MS spectra counts; selection criterion that MARCKS passed
Sequence of myristoylated alanine-rich C-kinase substrate (MARCKS), endogenous, in conditioned medium of SCp2 cells (mouse) (P26645 2-309 limits assumed): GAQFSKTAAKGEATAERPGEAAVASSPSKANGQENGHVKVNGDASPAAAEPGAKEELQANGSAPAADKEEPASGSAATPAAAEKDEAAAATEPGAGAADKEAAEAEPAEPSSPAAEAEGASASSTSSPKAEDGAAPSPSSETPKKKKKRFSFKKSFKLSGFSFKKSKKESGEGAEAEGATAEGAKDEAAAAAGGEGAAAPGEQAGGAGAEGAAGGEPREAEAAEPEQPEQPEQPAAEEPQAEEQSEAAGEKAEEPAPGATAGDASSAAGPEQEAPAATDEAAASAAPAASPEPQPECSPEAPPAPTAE

Sequence of annexin A2 (ANXA2), endogenous, in conditioned medium of SCp2 cells (mouse) (P07356 2-339 limits assumed): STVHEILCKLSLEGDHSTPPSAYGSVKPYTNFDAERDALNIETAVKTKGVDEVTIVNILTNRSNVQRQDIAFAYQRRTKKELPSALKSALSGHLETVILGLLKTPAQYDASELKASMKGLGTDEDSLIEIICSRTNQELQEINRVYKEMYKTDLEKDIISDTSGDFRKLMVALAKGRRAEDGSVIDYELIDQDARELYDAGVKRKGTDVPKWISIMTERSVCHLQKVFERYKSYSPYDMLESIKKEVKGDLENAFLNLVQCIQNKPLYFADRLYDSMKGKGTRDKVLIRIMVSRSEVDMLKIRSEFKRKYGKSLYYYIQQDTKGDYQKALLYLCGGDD

“Flag-tagged full-length human MMP3 (FL) (from UniProt P08254 18-477) (enzyme)” was tested, and the fold change of abundance (spectra counts) in FL compared with dPEX [1] was > 1.5 fold and the fold change of abundance (spectra counts) in FL compared with dPEX [2] was > 1.5 fold.

— patent US20150079071A1, “NON-CATALYTIC DOMAIN TARGETS IN MATRIX METALLOPROTEASE PROTEINS FOR CANCER THERAPIES” (THE REGENTS OF THE UNIVERSITY OF CALIFORNIA, priority 2012, published 2015)
